What was measured:
[1] = target: T1, HA-tagged NLRC5 (human NLRC5, full length) (human, UniProt Q86WI3 1-1866); assay: co-IP (anti-HA beads) and Western blot (anti-Flag), transfected 293T cells
T1 construct: Expressed from pcDNA3.1 with an HA tag in transfected 293T cells; used in lysates for co-immunoprecipitation; General statements about NLRC5 in overexpression experiments are put on this molecule; also called HA-NLRC5

[2] = target: T1, HA-tagged NLRC5 (human NLRC5, full …); assay: co-IP (anti-Flag or anti-HA beads) and Western blot, FIG. 15
[3] = target: T2, endogenous mouse NLRC5 (RAW264.7 cells) (mouse, UniProt C3VPR6 1-1915, limits assumed); assay: IP of RAW264.7 lysate with anti-mNLRC5, Western blot with anti-NEMO
T2 construct: Endogenous protein; also called mNLRC5; endogenous mNLRC5
T2 sequence (C3VPR6 whole entry G881R): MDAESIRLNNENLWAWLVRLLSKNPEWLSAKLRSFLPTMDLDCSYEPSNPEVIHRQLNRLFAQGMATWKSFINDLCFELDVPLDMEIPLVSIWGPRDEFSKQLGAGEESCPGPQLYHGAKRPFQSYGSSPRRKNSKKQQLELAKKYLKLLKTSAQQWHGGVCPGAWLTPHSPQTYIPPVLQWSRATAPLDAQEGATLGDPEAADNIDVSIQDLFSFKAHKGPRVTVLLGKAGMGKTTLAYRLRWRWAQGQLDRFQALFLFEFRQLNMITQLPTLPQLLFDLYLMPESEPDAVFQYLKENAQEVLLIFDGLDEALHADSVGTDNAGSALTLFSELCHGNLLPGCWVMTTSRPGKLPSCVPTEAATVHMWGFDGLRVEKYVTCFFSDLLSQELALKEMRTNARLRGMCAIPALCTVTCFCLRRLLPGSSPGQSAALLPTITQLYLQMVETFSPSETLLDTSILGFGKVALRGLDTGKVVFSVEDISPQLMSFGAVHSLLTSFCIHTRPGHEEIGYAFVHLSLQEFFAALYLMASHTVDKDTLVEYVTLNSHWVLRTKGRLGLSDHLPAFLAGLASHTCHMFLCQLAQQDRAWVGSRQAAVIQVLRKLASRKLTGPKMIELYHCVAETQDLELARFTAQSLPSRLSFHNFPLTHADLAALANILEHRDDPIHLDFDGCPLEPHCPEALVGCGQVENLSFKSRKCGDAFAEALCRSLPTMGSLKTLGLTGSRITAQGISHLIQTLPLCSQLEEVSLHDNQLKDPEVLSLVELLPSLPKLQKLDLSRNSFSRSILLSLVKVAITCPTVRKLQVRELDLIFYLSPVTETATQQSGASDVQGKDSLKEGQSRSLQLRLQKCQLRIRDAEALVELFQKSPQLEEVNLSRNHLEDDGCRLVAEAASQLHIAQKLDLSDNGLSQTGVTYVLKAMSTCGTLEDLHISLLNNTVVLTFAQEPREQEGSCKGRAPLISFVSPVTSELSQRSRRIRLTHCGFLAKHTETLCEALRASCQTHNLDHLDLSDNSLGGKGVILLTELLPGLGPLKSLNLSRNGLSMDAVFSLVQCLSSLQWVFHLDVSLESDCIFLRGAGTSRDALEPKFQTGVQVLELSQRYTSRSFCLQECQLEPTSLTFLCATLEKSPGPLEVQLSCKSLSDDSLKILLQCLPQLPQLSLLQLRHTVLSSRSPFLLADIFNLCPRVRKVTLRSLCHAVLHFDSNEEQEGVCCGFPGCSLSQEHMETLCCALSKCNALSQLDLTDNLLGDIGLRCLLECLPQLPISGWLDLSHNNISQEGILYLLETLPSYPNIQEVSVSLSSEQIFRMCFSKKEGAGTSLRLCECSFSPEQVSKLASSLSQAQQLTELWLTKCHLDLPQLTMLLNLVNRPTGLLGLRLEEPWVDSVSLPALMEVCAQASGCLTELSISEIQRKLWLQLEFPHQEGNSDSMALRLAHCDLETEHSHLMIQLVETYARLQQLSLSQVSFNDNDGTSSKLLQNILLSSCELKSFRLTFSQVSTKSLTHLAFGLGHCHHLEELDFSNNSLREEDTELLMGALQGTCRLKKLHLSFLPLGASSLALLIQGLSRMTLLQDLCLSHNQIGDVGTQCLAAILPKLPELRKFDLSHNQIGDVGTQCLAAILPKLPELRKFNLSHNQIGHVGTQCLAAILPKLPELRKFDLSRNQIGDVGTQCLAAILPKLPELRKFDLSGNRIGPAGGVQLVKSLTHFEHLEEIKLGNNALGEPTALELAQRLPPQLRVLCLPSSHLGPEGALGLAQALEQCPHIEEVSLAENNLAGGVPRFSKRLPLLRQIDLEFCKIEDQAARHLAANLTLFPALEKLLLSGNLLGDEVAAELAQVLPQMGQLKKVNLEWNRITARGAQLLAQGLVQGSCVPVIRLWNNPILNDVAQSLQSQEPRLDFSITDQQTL

T1 sequence (Q86WI3 whole entry N907D): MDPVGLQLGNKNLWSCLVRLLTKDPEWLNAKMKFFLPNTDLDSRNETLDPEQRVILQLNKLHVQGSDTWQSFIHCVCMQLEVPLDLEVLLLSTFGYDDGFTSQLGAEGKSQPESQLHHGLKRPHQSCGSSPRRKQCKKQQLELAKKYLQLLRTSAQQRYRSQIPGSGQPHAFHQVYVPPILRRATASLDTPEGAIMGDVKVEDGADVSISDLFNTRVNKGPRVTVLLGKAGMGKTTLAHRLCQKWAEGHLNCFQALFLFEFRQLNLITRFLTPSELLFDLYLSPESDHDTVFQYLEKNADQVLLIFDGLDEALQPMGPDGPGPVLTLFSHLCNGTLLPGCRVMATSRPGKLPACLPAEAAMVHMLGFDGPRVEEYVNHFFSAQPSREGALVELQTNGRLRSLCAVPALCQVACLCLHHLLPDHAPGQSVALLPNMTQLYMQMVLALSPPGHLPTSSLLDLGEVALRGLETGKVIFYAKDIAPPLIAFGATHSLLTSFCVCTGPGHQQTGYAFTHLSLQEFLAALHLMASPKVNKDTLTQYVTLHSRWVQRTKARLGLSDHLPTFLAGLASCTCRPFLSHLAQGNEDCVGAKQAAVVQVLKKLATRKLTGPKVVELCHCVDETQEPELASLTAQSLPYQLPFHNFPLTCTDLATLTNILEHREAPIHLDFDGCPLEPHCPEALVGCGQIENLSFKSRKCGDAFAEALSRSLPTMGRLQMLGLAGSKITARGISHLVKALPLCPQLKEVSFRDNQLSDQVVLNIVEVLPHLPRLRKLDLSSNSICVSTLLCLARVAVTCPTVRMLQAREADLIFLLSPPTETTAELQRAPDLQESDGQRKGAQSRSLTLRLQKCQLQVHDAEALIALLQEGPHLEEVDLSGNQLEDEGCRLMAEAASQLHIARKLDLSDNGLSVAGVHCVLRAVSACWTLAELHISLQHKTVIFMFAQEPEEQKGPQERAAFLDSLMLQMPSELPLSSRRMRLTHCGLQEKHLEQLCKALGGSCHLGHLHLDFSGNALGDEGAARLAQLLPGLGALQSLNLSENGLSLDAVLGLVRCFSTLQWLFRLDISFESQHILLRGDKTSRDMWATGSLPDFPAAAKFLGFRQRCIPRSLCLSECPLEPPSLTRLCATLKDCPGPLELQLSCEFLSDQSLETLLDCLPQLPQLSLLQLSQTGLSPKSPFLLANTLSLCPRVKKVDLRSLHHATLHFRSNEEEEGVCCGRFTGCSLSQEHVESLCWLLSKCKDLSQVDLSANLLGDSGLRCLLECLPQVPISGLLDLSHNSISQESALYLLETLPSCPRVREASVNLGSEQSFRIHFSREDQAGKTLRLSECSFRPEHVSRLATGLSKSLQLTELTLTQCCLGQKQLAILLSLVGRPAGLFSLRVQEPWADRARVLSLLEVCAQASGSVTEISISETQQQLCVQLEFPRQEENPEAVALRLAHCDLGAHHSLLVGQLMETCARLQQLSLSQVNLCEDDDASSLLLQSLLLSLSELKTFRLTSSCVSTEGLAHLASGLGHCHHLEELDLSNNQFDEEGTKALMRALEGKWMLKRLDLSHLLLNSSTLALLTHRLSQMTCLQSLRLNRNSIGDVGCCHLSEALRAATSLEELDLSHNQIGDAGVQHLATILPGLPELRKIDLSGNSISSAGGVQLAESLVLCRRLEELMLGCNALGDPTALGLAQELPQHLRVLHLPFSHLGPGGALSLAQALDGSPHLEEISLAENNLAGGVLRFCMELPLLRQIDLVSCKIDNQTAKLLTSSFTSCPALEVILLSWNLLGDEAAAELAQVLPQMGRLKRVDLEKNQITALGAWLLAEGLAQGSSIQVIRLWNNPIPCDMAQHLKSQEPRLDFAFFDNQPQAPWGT

Binder | binding result [1] | binding result [2] | other results
IKKi (expressed in 293T cells, detected with anti-Flag) (enzyme, UniProt Q14164 1-716, looked up, not shown: small tags and cut ends) MQSTANYLWHTDDLLGQGATASVYKARNKKSGELVAVKVFNTTSYLRPREVQVREFEVLRKLNHQNIVKLFAVEETGGSRQKVLVMEYCSSGSLLSVLESPENAFGLPEDEFLVVLRCVVAGMNHLRENGIVHRDIKPGNIMRLVGEEGQSIYKLTDFGAARELDDDEKFVSVYGTEEYLHPDMYERAVLRKPQQKAFGVTVDLWSIGVTLYHAATGSLPFIPFGGPRRNKEIMYRITTEKPAGAIAGAQRRENGPLEWSYTLPITCQLSLGLQSQLVPILANILEVEQAKCWGFDQFFAETSDILQRVVVHVFSLSQAVLHHIYIHAHNTIAIFQEAVHKQTSVAPRHQEYLFEGHLCVLEPSVSAQHIAHTTASSPLTLFSTAIPKGLAFRDPALDVPKFVPKVDLQADYNTAKGVLGAGYQALRLARALLDGQELMFRGLHWVMEVLQATCRRTLEVARTSLLYLSSSLGTERFSSVAGTPEIQELKAAAELRSRLRTLAEVLSRCSQNITETQESLSSLNRELVKSRDQVHEDRSIQQIQCCLDKMNFIYKQFKKSRMRPGLGYNEEQIHKLDKVNFSHLAKRLLQVFQEECVQKYQASLVTHGKRMRVVHETRNHLRLVGCSVAACNTEAQGVQESLSKLLEELSHQLLQDRAKGAQASPPPIAPYPSPTRKDLLLHMQELCEGMKLLASDLLDNNRIIERLNRVPAPPDV | no binding |  | 
TRAF3 (expressed in 293T cells) (other, UniProt Q13114 1-568, looked up, not shown: small tags and cut ends) MESSKKMDSPGALQTNPPLKLHTDRSAGTPVFVPEQGGYKEKFVKTVEDKYKCEKCHLVLCSPKQTECGHRFCESCMAALLSSSSPKCTACQESIVKDKVFKDNCCKREILALQIYCRNESRGCAEQLMLGHLLVHLKNDCHFEELPCVRPDCKEKVLRKDLRDHVEKACKYREATCSHCKSQVPMIALQKHEDTDCPCVVVSCPHKCSVQTLLRSELSAHLSECVNAPSTCSFKRYGCVFQGTNQQIKAHEASSAVQHVNLLKEWSNSLEKKVSLLQNESVEKNKSIQSLHNQICSFEIEIERQKEMLRNNESKILHLQRVIDSQAEKLKELDKEIRPFRQNWEEADSMKSSVESLQNRVTELESVDKSAGQVARNTGLLESQLSRHDQMLSVHDIRLADMDLRFQVLETASYNGVLIWKIRDYKRRKQEAVMGKTLSLYSQPFYTGYFGYKMCARVYLNGDGMGKGTHLSLFFVIMRGEYDALLPWPFKQKVTLMLMDQGSSRRHLGDAFKPDPNSSSFKKPTGEMNIASGCPVFVAQTVLENGTYIKDDTIFIKVIVDTSDLPDP |  | no binding | 
TBK1 (expressed in 293T cells) (enzyme, UniProt Q9UHD2 1-729, looked up, not shown: small tags and cut ends) MQSTSNHLWLLSDILGQGATANVFRGRHKKTGDLFAIKVFNNISFLRPVDVQMREFEVLKKLNHKNIVKLFAIEEETTTRHKVLIMEFCPCGSLYTVLEEPSNAYGLPESEFLIVLRDVVGGMNHLRENGIVHRDIKPGNIMRVIGEDGQSVYKLTDFGAARELEDDEQFVSLYGTEEYLHPDMYERAVLRKDHQKKYGATVDLWSIGVTFYHAATGSLPFRPFEGPRRNKEVMYKIITGKPSGAISGVQKAENGPIDWSGDMPVSCSLSRGLQVLLTPVLANILEADQEKCWGFDQFFAETSDILHRMVIHVFSLQQMTAHKIYIHSYNTATIFHELVYKQTKIISSNQELIYEGRRLVLEPGRLAQHFPKTTEENPIFVVSREPLNTIGLIYEKISLPKVHPRYDLDGDASMAKAITGVVCYACRIASTLLLYQELMRKGIRWLIELIKDDYNETVHKKTEVVITLDFCIRNIEKTVKVYEKLMKINLEAAELGEISDIHTKLLRLSSSQGTIETSLQDIDSRLSPGGSLADAWAHQEGTHPKDRNVEKLQVLLNCMTEIYYQFKKDKAERRLAYNEEQIHKFDKQKLYYHATKAMTHFTDECVKKYEAFLNKSEEWIRKMLHLRKQLLSLTNQCFDIEEEVSKYQEYTNELQETLPQKMFTASSGIKHTMTPIYPSSNTLVEMTLGMKKLKEEMEGVVKELAENNHILERFGSLTMDGGLRNVDCL |  | no binding | 
endogenous NEMO (RAW264.7 cells) (other, mouse, UniProt O88522 1-412, looked up) MNKHPWKNQLSEMVQPSGGPAEDQDMLGEESSLGKPAMLHLPSEQGTPETLQRCLEENQELRDAIRQSNQMLRERCEELLHFQVSQREEKEFLMCKFQEARKLVERLSLEKLDLRSQREQALKELEQLKKCQQQMAEDKASVKAQVTSLLGELQESQSRLEAATKDRQALEGRIRAVSEQVRQLESEREVLQQQHSVQVDQLRMQNQSVEAALRMERQAASEEKRKLAQLQAAYHQLFQDYDSHIKSSKGMQLEDLRQQLQQAEEALVAKQELIDKLKEEAEQHKIVMETVPVLKAQADIYKADFQAERHAREKLVEKKEYLQEQLEQLQREFNKLKVGCHESARIEDMRKRHVETPQPPLLPAPAHHSFHLALSNQRRSPPEEPPDFCCPKCQYQAPDMDTLQIHVMECIE |  |  | binding result [3]: no binding

More lines, main results first:

binding result [1] | binding result [2] | Binder | other results
 | no binding | IRF3 (expressed in 293T cells) (other, UniProt Q14653 1-427, looked up, not shown: small tags and cut ends) MGTPKPRILPWLVSQLDLGQLEGVAWVNKSRTRFRIPWKHGLRQDAQQEDFGIFQAWAEATGAYVPGRDKPDLPTWKRNFRSALNRKEGLRLAEDRSKDPHDPHKIYEFVNSGVGDFSQPDTSPDTNGGGSTSDTQEDILDELLGNMVLAPLPDPGPPSLAVAPEPCPQPLRSPSLDNPTPFPNLGPSENPLKRLLVPGEEWEFEVTAFYRGRQVFQQTISCPEGLRLVGSEVGDRTLPGWPVTLPDPGMSLTDRGVMSYVRHVLSCLGGGLALWRAGQWLWAQRLGHCHTYWAVSEELLPNSGHGPDGEVPKDKEGGVFDLGPFIVDLITFTEGSGRSPRYALWFCVGESWPQDQPWTKRLVMVKVVPTCLRALVEMARVGGASSLENTVDLHISNSHPLSLTSDQYKAYLQDLVEGMDFQGPGES | 
no binding |  | Flag-MAVS (other, UniProt Q7Z434 1-540, looked up, not shown: small tags and cut ends) MPFAEDKTYKYICRNFSNFCNVDVVEILPYLPCLTARDQDRLRATCTLSGNRDTLWHLFNTLQRRPGWVEYFIAALRGCELVDLADEVASVYQSYQPRTSDRPPDPLEPPSLPAERPGPPTPAAAHSIPYNSCREKEPSYPMPVQETQAPESPGENSEQALQTLSPRAIPRNPDGGPLESSSDLAALSPLTSSGHQEQDTELGSTHTAGATSSLTPSRGPVSPSVSFQPLARSTPRASRLPGPTGSVVSTGTSFSSSSPGLASAGAAEGKQGAESDQAEPIICSSGAEAPANSLPSKVPTTLMPVNTVALKVPANPASVSTVPSKLPTSSKPPGAVPSNALTNPAPSKLPINSTRAGMVPSKVPTSMVLTKVSASTVPTDGSSRNEETPAAPTPAGATGGSSAWLDSSSENRGLGSELSKPGVLASQVDSPFSGCFEDLAISASTSLGMGPCHGPEENEYKSEGTFGIHVAENPSIQLLEGNPGPPADPDGGPRPQADRKFQEREVPCHRPSPGALWLQVAVTGVLVVTLLVVLYRRRLH | 

— patent US20110229560A1 (published 2011)
